Series [1] deals with Rap_(pLS20)-His(6) (Bacillus subtilis plasmid pLS20). Description: AUC.
Series [2] shares this target. Nature of the series: AUC. The source holds these as a separate data set.
Series [3] shares this target. Nature of the series: AUC. The source holds these as a separate data set.
Series [4] has as its target Rco_(pLS20)-His(6) (Bacillus subtilis plasmid pLS20). Nature of the series: AUC.
Series [5] deals with T1, RcopLS20-His(6) (Bacillus subtilis plasmid pLS20 (pLS20cat)), ORF:72252162.
T1 sequence: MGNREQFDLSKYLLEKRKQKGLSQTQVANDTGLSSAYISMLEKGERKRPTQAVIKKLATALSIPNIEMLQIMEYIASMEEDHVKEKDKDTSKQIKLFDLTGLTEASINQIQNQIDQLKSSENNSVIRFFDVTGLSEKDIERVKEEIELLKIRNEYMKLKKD
Nature of the series: analytical ultracentrifugation.

The test system is the same in series [6]. Nature of the series: EMSA. (A gel shift assay detects complexes by their altered migration in electrophoresis.)
Series [7] has as its system T2, RappLS20-His(6) (Bacillus subtilis plasmid pLS20 (pLS20cat)), ORF:c1c32938.
T2 sequence: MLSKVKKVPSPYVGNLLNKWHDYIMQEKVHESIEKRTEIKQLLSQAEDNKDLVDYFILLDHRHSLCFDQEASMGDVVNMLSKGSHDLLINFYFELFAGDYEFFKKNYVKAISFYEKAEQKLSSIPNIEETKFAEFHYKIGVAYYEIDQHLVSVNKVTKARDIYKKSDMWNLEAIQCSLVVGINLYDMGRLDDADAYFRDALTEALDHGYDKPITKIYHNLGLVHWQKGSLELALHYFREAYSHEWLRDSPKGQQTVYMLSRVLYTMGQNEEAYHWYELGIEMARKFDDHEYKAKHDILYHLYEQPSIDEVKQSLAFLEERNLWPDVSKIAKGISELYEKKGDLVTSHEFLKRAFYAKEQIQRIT
Nature of the series: EMSA.

Here are results for seven molecules from PMC7641744.

As usually defined, the stoichiometry N is the number of molecules, sites or subunits per partner or assembly. As a reminder, the Kd is the concentration at which binding is half-saturated.

Read-outs that look alike come from different tables or passages of the source.

Turning to Rap_(pLS20)-His(6) (natural protein), the stoichiometry N in series [1] was 4; in series [2], 2; in series [3], 4.
In the case of Rco_(pLS20)-His(6) (natural protein), the stoichiometry N in series [4] was 4; in series [3] (scale: mol of Rco_(pLS20) per mol of Rap_(pLS20)) it was 2.1.
The molecule Phr*_(pLS20) (peptide) had a Kd in series [3] of 2.1 µM.
Regarding “CGCGGATCCTATACCACCTCGCAAAATAAACCCTGTATACGGTCTAGCGCTTACAATTTTTCGCGTTTTTTTTACTCAGTGAAAAAAACCGGTTAAAAATTTCACTGAAATACTTTACAGTTAAAAAAATGTCTGTTATCTTAGTGAAAGAGTCAGTGAAAAAAATGCAGAATAAGGTTTTTTGTTGTTAATCTCAAACAATTTCTGTGTAAAAAGAAC (double strand) [Fragment FIII (219 bp, operator OII)]”, the binding entry is “binds” in series [5], “binds” in series [6] and “no binding” in series [7].
PhrF*-R2K (peptide) yielded a Kd in series [3] of 4.2 µM.
In turn, PhrF*-I5Y (peptide) yielded a Kd in series [3] of 4.2 µM.
Molecule QRGMI [PhrF*] had a Kd in series [3] of 5.3 µM.
